Assay results taken from the DeepSol protein solubility set.

Test: soluble on expression in E. coli; label from the status in PepcDB or PDB records

| Sequence | soluble on expression in E. coli |
| --- | --- |
| GPGSMHTKVLAPLAGNRIQAAHKFPQVRLQPTLHRLMTRRRQCNLPLRLFHPSSVDFAKHELEAGRIVEVRRDDNSLVALGFYEPHLERVDVFDMTANLAAMLPAISEDFFMARVHEAWERRRRILPQTQSNTYRVVNGYADSLPSLFVDVFSESFVRVVATSFGAERLVTPLLDFLSRRGAEDVLLDTPTLGDAARVSIVTPTISLPQMYVESGVSHLWLRPDMRMPSTDNLFLINPAHRRTRRMMRDVGKGKRVLTIYDRSGSAAMNAVMTAKHVTVVHREETSLEWARTNLICNHSASVFKTCETVCCDPAELRVRHQQDVVYVECHPKFLSTSNQWAELVRSLANNKVIGVGTMLIVAQEEAPLGVHDLLPRRKVFYEGDESKANQDCPMKRRPLADVLRNALEKCHLRLKFLRAFSVACDHPLLPEAESASFSLVYLVEGPALEQVFRVSASSHRTECTDEAA | not soluble |
| SPLKFELCPGRMIGGNNPCFIIAEIGQNHQGDIEIAKKMIKMAKDCGADCAKFQKSELEYKFNKKALERPYTSKHSWGKTYGEHKRHLEFSHEQYRELQQYAKQVGIFFTASGMDEMAVEFLHELDVPFFKVGSGDTNNFPYLKKTAQKGRPMVVSSGMQSMETMQHVYKIVKEHNQNFCILQCTSAYPLEPEDVNLRVITEYQKEFPDIPIGYSGHESGINITVGAVALGAKVVERHVTLDKSWKGSDHAASLEPEELAELVRSIRIVERALGTGLKRMLPCEVPCHDKLGKSVVAKTSIPKGTELTLDMLAVKVAEPKGVAPEEIFQLVGKKVTTDVEEDESITEDVVDSYGKKAKA | soluble |
| MIRQTLWSDVAAPLQNAFQTNNSGNRPVLMMLGGYTFSLASLVYQELARVNEYRWAAIERYGQRDARQYTGPGDESIELPGIAYPDWQGQRASLDELRALAAQGKPLQLIDSNGLIHGWYVIERIEERQSDHHPNGTPRRIEFTLALQRVNDDHAVEATP | not soluble |
| MSEISAIWERIEAWHAANDQTENLNPGATAEALAQAEKDMGLTFPPEMRESLLRHDGSVDDSWPTGELLSLERMADERKVWMDLLQDGTFDGNASHNESSEALQPGWWNPAWIPLDADGGGNGAVIDLAPGPQGTVGQVIDMDHEVGPSGPKYVSLAAYLEAMLERLSEAEE | soluble |
| PNRLAEAGSRYLRQHSCDPVDWMPWGAEAFEKARRLDKPVFVSVGYSSCHWCHVMQRESFSDPMVAEVLNRAFVMVKVDREERPDVDTLLMRYCAIASGSCGWPLNVLLTPDGKPFYVATYLPKESLVALAVSLERVWRERRAEVLEVAERAGGLLEQHRLAFTPGR | not soluble |
| GRWILKNDVKNRSVYIKGFPTDATLDDIKEWLEDKGQVLNIQMRRTLHKAFKGSIFVVFDSIESAKKFVETPGQKYKETDLLILFKDDYFAKKNEERKQNKVE | soluble |
| MSLHRFQYKAYRRSFAGTFANARESFAKREGLMIRLEDRDGRVGFGEVAPIVSFGSESFASAFSVAESLGEQVAFERVLPELAGYPCLRWACESALDMIAREGVWEELEKPWPICGLVADLGDLASVEEKLGMHYQCLKFKIGKKSLIEELKALDRVIELSEGKVQIRLDANGTLDMRTAIGWLERVAGLPVEFIEQPLPVGAEVEMRRLSADFPTLLALDESVDSVDDLKRWRDQQWPGLYVIKPSLSGSLLALGEELSGGAGDCVFSSSLETKIGESNAIGFAIRQSGHGRALGFGVERLFADRNVGLELGPFLQKGGLASSDDLESLWNLTEGHHHHHH | soluble |
| DRLGQPPSGYGVLLSVHEDKTVDVFTSGRKMRLTCSPNIDTDTLALGQTVRLNEALTIVEAGTYEQVGEISTLREVLDDGLRALVVGHADEERIVWLAAPLAAVFADPEADIIAYDADSPTRKLRPGDSLLVDTKAGYAFERIPKAEVEDLVL | soluble |
| MEAVAEHDFQAGSPDELSFKRGNTLKVLNKDEDPHWYKAELDGNEGFIPSNYIRMTECNWYLGKITRNDAEVLLKKPTVRDGHFLVRQCESSPGEFSISVRFQDSVQHFKVLRDQNGKYYLWAVKFNSLNELVAYHRTASVSRTHTILLSDMNVETKFVQALFDFNPQESGELAFKRGDVITLINKDDPNWWEGQLNNRRGIFPSNYVCPYNSNKSNSNVAPGFNFGN | not soluble |
| MSLLRETLESGKFAVTTEMAPPKGTDLSHLIECAKPLVGRVHAANVTDFQSAVMRATSLATCKLLKDAGLEPVIQITGRDRNRIAIQGEMLSAGVFGINNLLALTGDHTSVGDHPQAKGVFDLDSVGILQTAETLMAGTDMAGNKLKGSPDFYLGASVTPEYSPIEVQLLKMKKKIKAGAKFFQTQALYDINTMRKFRELTRDMDCKVLAGIVPLKSPGMAKFMTANVPGIFVPDEQIERLRAAGKENWVSEGIKMAGELIKQLKEEDLCDGVHIMAIGAEENIPAILDAAGL | not soluble |
| MKLNIRAQTAQNQHNNSPIVLVHGLFGSLDNLGVLARDLVNDHNIIQVDMRNHGLSPRDPVMNYPAMAQDLVDTLDAQQIDKATFIGHSMGGKAVMALTALASDRIDKLVAIDIAPVDYHVRRHDEIFAAINAVSESDAQTRQQAAAIMRQHLNEEGVIQFLLKSFVDGEWRFNVPVLWDQYPHIVGWEKIPAWDHPALFIPGGNSPYVSEQYRDDLLAQFPQARAHVIAGAGHWVHAEKPDAVLRAIRRYLND | not soluble |
| SYELTQPPSVSVAPGQTARISCSGDNIGGTFVSWYQQKPGQAPVLVIYDDNDRPSGIPERFSGSNSGNTATLTISGTQAEDEADYYCGTWDMVTNNVFGGGTKLTVLGQPKAAPSVTLFPPSSEELQANKATLVCLISDFYPGAVTVAWKADSSPVKAGVETTTPSKQSNNKYAASSYLSLTPEQWKSHRSYSCQVTHEGSTVEKTVAPTECS | soluble |
| MSIRFARKADCAAIAEIYNHAVLYTAAIWNDQTVDADNRIAWFEARTLAGYPVLVSEENGVVTGYASFGDWRSFDGFRHTVEHSVYVHPDHQGKGLGRKLLSRLIDEARDCGKHVMVAGIESQNQASLHLHQSLGFVVTAQMPQVGTKFGRWLDLTFMQLQLDERTEPDAIG | soluble |
| GPGSMDTIEFLHTVGKLKETMRTGWVETGVHQPESVSDHMYRAALLCMMCPDSSLNRDRLVRMALCHDVGESIIGDISPKMGVPAAEKHKREKEAILHLRGLLPHDSPLEKELQELWEEYETQGTPEARFLRDIDLLEMVTQAHAYEKTHPELNFDSFYVSGEKIKHPWVRSIYDNLVSTRPSRKS | soluble |
| MGSDKIHHHHHHMALTQLEQPLSPQPTPPDLRGYEYDLVIVGGGIIGLTLASALKDSGLSILLIEAKVASAAVAKGQAYAVHQLSALIYQGIGVWDKILPQIAKYRRVRLSDADYPNVVEFTTDDIHTAELGYVAEHQALLQPLQEFVQDCPNVTYLCPAEVVNTQYQKDIVAVDIKVADQLYTVRSKLLIAADGARSPIRQAAGIKTSGWKYWQSCIVAFVKPEKPHNNTAYERFWSSGPFAILPLPENRCRIVWTAPHEEAKALCALDDEQFLAELTRRYGDQMGKLELLGDRFVFQVQLMQSDRYVLPRLALIGDAAHNCHPVGGQGLNLGIRDAAALAQVIQTAHQAGKDIGDIQILKGYERWRKLENLTILGFTDLLDRMFSNNFLPVVVVRRLGLWFLQRVPLLKVFMLKLMIGLKGRTPELAKR | not soluble |
| MSLKIFGTDGVRGKAGVKLTPMFVMRLGIAAGLYFKKHSQTNKILIGKDTRKSGYMVENALVSALTSIGYNVIQIGPMPTPAIAFLTEDMRCDAGIMISASHNPFEDNGIKFFNSYGYKLKEEEEKAIEEIFHDEELLHSSYKVGESVGSAKRIDDVIGRYIAHLKHSFPKHLNLQSLRIVLDTANGAAYKVAPVVFSELGADVLVINDEPNGCNINDQCGALHPNQLSQEVKKYRADLGFAFDGDADRLVVVDNLGNIVHGDKLLGVLGVYQKSKNALSSQAVVATNMSNLALKEYLKSQDLELKHCAIGDKFVSECMQLNKANFGGEQSGHIIFSDYAKTGDGLVCALQVSALVLESKQVSSVALNPFELYPQSLVNLNVQKKPPLESLKGYSALLKELDKLEIRHLIRYSGTENKLRILLEAKDEKLLESKMQELKEFFEGHLCEGHHHHHH | soluble |
| MSLSNIHHLERSLRKLRLTRVGAEWHALEKRALAEGWTPSRYLLTLCNEELLWRESEKLRRYKKEARLPVAKTLSEYDFSQVPELNGAQFRQLCETTDWVDAGENVLLFGASGLGKSHLAAAIVDGVVGQGYRARFYSAGELLQELRKARAQLKLNELLLKLDRYRVIVVDDLGYVKRDSAETGVLFELIAHRYERGSLVITSNHPFSMWGSIFVDETMAVAAADRLIHHGYMFELKGESYRKKTAKAVTSATEGHHHHHH | soluble |
| GSHMKNSVSVDLPGSMKVLVSKSSNADGKYDLIATVDALELSGTSDKNNGSGVLEGVKADASKVKLTISDDLGQTTLEVFKSDGSTLVSKKVTRADGTRLEYTGIKSDGSGKAKEVLKGYVLEGTLTAEKTTLVVKEGTVTLSKNISKSGEVSVELNDTDSSAATKKTAAWNSGTSTLTITVNSKKTKDLVFTSSNTITVQQYDSNGTSLEGSAVEITKLDEIKNALK | soluble |
| MSEDWPQHFPPRGTVPDAEVYDQFISASTLQWWYVNAHLTVKGEDNSSLAFFASFFRQAGDNCPTAATKYYDACVWALIDLKNKKCYAESALDPESIDQLKLRLDPAVMGRKLEHVEVALLELLNKGRVPRPDRLLKRKAVYTQHPFSIALDDSCVMTIAQEGSARRYTFSLTNAADDVHVEVCLETQQQPVLHGKDGCVNGMYYYYFPSMSVTGYVVVKGLKREVTGLGWYDREVGGSTAEVDREAKYTWSWLSLHASNMSQLSIFYISGNAEDEGKERVIVETRADGSRHYHDDLIMETNKSWSSLVTFMQYPSEFRLCSASMGLDVTIHTAFDAQEIGTVLVGGAGFYEGVVEGSGVCSGDAVTLRGFFEYKKNAAPYRNTSELLKYVGSYVHGALEEIYPLAASDSWLSENVLGRYAMDRGAPADKICETLFRPVRSIIDRGGKSWRSLILVSCCNALSRQYFDCRRYIAVAELLHVGSLIIDDIQDNSVVRRGGKCVHVEYGVATAINAGSACYFMGPRAARIQDLPPEKASRIYQLYFDVLLAGHAGQGLDIYRLDYLMPKVVETGDASTLFDALDAIHTYKTGGAVGALCSMACVLCEAPTVLSEAVERFGLALGLAFQIVDDALNIRGFEENLKEEAEDIKDGKITYPTAIAMGRLEAADRQTLWAILRKPTKEAADIQQAVELIMKVDATSECFLIARHRLQEMWNALDPLLEDSFPKLLMRTFCSFLVERKY | soluble |
| MGSDKIHHHHHHMRKLIFIAFMVMSVCGYAQKYEVGTTTAVWKAPAAADFLHAKAIGVKYVEVAFNQCYRGVPVDEVIPRIKEMKAKIDSADIEVWSIHLPFSRTLDISVLDDRLRKENVDFMAEMIELCAMFQPTCLVLHPSSEPIADSIRAQRIANASESIAYLKKYADRIGAQLCIENLPRTCLGNTPEELMRIVGDIPDVKVCFDTNHYTKGTTEHFVAIVGSRIGTIHASDFDLVNECHWLPTQGNIKWGKLMQDLEKTGYKGVFMYEATKDHENNNVRPALERIAETFDKITDDYKTLK | not soluble |
| MPKEILMPELAESVVEGEILKWLVEEGDYLKKDQPFVEVMTDKVTVELPSPYEGVLLKKLAKEGEVVKVHAPIALIAEPGEAVEGVKEAPPVQAVEERSIVEPGLPAKEEKEDLSLFKPDPTQVAVKNPFLSGEKPQEGARPGRVLAVPAARKLARELGIPIEEVPGSGPLGRVRVEDVRAYAERRKAPPERPEEGPQVLPAGFPPPPKYAPPKGYEHLEERVPLRGIRRTIAQGLWQSHLYTVRTLNVDEADLTELVRLRERLKPQAEAQGVKLTYLPFIVKAVVRALKKFPMLNTSLDEERQEIVYKRYYHIGLAVATERGLIVPVVRDADRKSVLELAQEIAELSQKAREGRLAPEEVTGSTFTITNIGSVGATLSFPIIHLPDAAILGVHSIRKRPWVMPDGSIRPRDIMFLSLSFDHRLVDGAEAAMFTREVIRLLENPDLLLLEM | soluble |
